Test results from patent US20120028894A1.

Target: Insulin-Degrading Enzyme (IDE), species not stated (Homo sapiens (Human)) (UniProt P14735)
Assay: cell-based or functional assay

“Insulin isolated from bovine pancreas (SIGMA) (from UniProt P01317 85-105; P01317 25-54) (ligand)” gave an insulin degradation by IDE without inhibitor, 16 hours at 37 C, insulin ELISA (% degradation) of 60.
